First the molecules themselves.
B1: RSPH3 (parent)
chain: QRLEEQERRHREEKERRKKQQWEI
B2: KRT18 (parent)
chain: PQVRDWSHYFKIIEDLRAQIFANT
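Note: lentivirally expressed fusions sorted by FACS into six bins by GFP to DsRed ratio, PSI derived from sequencing read proportions per bin multiplied by bin number.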

The first data set covers variants of B1. Put plainly: protein stability index of a GFP-peptide fusion (GPS, HEK-293T) (PSI 1-6); higher = more stable. The note with it: c terminus: a fixed tail appended.
In the case of QRLEEQERRHREEKERRKKQQWEY [I24Y], the protein stability index stood at 4.82. On the same count and under the same terms, the same measure for QRLEEQEARHREEKERRKKQQWEI [R8A]: 4.86. As for QHLEEQERRHREEKERRKKQQWEI [R2H], the protein stability index is 4.53.

Turning to QDLEEQERRHREEKERRKKQQWEI [R2D], the protein stability index was found to be 5.14. The same measure, in the same setting: the value for QRLEEQERRHREEKERRKKLQWEI [Q20L] was 4.35. Turning to QRLEEQERRHREPKERRKKQQWEI [E13P], the protein stability index is 4.06. On the same count and under the same terms, the same measure for QRNEEQERRHREEKERRKKQQWEI [L3N]: 4.59.

The next data set covers variants of B2. The data set is described as above. The note with it: c terminus: a fixed tail appended.
As for PQVMDWSHYFKIIEDLRAQIFANT [R4M], the protein stability index is 2.69. PQVLDWSHYFKIIEDLRAQIFANT [R4L]: the protein stability index turned out to be 1.93. On the same count and under the same terms, the value for PQVCDWSHYFKIIEDLRAQIFANT [R4C] was 1.99; that for PQVYDWSHYFKIIEDLRAQIFANT [R4Y] was 1.61. Still for that read-out and setting: the same measure for PQVIDWSHYFKIIEDLRAQIFANT [R4I]: 2.32; for PQVWDWSHYFKIIEDLRAQIFANT [R4W]: 2.58. The same measure, in the same setting: the same measure for PQVGDWSHYFKIIEDLRAQIFANT [R4G]: 2.37; for PQVADWSHYFKIIEDLRAQIFANT [R4A]: 3.02; for PQVNDWSHYFKIIEDLRAQIFANT [R4N]: 2.63. PQVKDWSHYFKIIEDLRAQIFANT [R4K]: the protein stability index was 2.29.

As to PQVPDWSHYFKIIEDLRAQIFANT [R4P], the protein stability index was 2.47.

For the variant PQVFDWSHYFKIIEDLRAQIFANT [R4F], the protein stability index is 1.6. On the same count and under the same terms, the value for PQVHDWSHYFKIIEDLRAQIFANT [R4H] was 2.25.

On to PQVVDWSHYFKIIEDLRAQIFANT [R4V], for which the protein stability index is 2.09. Turning to PQVEDWSHYFKIIEDLRAQIFANT [R4E], the protein stability index was found to be 2.43. The same measure, in the same setting: the same measure for PQVTDWSHYFKIIEDLRAQIFANT [R4T]: 2.13; for PQVSDWSHYFKIIEDLRAQIFANT [R4S]: 2.61. On the same count and under the same terms, the value for PQVDDWSHYFKIIEDLRAQIFANT [R4D] was 2.84; that for PQVQDWSHYFKIIEDLRAQIFANT [R4Q] was 2.53; that for PQTRDWSHYFKIIEDLRAQIFANT [V3T] was 2.24. Still for that read-out and setting: the same measure for PQCRDWSHYFKIIEDLRAQIFANT [V3C]: 2.41; for PQHRDWSHYFKIIEDLRAQIFANT [V3H]: 1.94; for PQYRDWSHYFKIIEDLRAQIFANT [V3Y]: 2.69. For PQWRDWSHYFKIIEDLRAQIFANT [V3W], the protein stability index is 1.7. The same measure, in the same setting: the same measure for PQDRDWSHYFKIIEDLRAQIFANT [V3D]: 2.39; for PQPRDWSHYFKIIEDLRAQIFANT [V3P]: 2.46; for PQNRDWSHYFKIIEDLRAQIFANT [V3N]: 2.06.

With PQQRDWSHYFKIIEDLRAQIFANT [V3Q], the protein stability index was determined as 2.52. On the same count and under the same terms, the same measure for PQKRDWSHYFKIIEDLRAQIFANT [V3K]: 1.79; for PQERDWSHYFKIIEDLRAQIFANT [V3E]: 3.61. PQFRDWSHYFKIIEDLRAQIFANT [V3F]: the protein stability index was determined as 2.24.

For PQIRDWSHYFKIIEDLRAQIFANT [V3I], the protein stability index turned out to be 2.05. Consider PQMRDWSHYFKIIEDLRAQIFANT [V3M], for which the protein stability index turned out to be 1.84.

Turning to PQLRDWSHYFKIIEDLRAQIFANT [V3L], the protein stability index was determined as 2.88. Same read-out and setting: the value for PQSRDWSHYFKIIEDLRAQIFANT [V3S] was 2.44; that for PQARDWSHYFKIIEDLRAQIFANT [V3A] was 1.71. The same measure, in the same setting: the value for PQGRDWSHYFKIIEDLRAQIFANT [V3G] was 2.13.

For PQVRQWSHYFKIIEDLRAQIFANT [D5Q], the protein stability index is 2.44. As for PQVRKWSHYFKIIEDLRAQIFANT [D5K], the protein stability index came to 3.2. Still for that read-out and setting: the value for PQVRHWSHYFKIIEDLRAQIFANT [D5H] was 1.68; that for PQVRTWSHYFKIIEDLRAQIFANT [D5T] was 2.53. As for PQVRRWSHYFKIIEDLRAQIFANT [D5R], the protein stability index turned out to be 3.09. Same read-out and setting: the same measure for PQVRMWSHYFKIIEDLRAQIFANT [D5M]: 2.57; for PQVRPWSHYFKIIEDLRAQIFANT [D5P]: 1.87. Still for that read-out and setting: the value for PQVRVWSHYFKIIEDLRAQIFANT [D5V] was 2.56; that for PQVRLWSHYFKIIEDLRAQIFANT [D5L] was 2.88. The same measure, in the same setting: the value for PQVRGWSHYFKIIEDLRAQIFANT [D5G] was 1.99; that for PQVRIWSHYFKIIEDLRAQIFANT [D5I] was 2.46; that for PQVRCWSHYFKIIEDLRAQIFANT [D5C] was 2.2. With PQVRNWSHYFKIIEDLRAQIFANT [D5N], the protein stability index was found to be 2.16.

As to PQVREWSHYFKIIEDLRAQIFANT [D5E], the protein stability index amounted to 2.8. The same measure, in the same setting: the same measure for PQVRAWSHYFKIIEDLRAQIFANT [D5A]: 2.93; for PQVRFWSHYFKIIEDLRAQIFANT [D5F]: 1.88; for PQVRYWSHYFKIIEDLRAQIFANT [D5Y]: 2.15. PQVRSWSHYFKIIEDLRAQIFANT [D5S]: the protein stability index came to 2.5. On the same count and under the same terms, the same measure for PQVRWWSHYFKIIEDLRAQIFANT [D5W]: 1.63. As to QQVRDWSHYFKIIEDLRAQIFANT [P1Q], the protein stability index is 2.38. Same read-out and setting: the same measure for MQVRDWSHYFKIIEDLRAQIFANT [P1M]: 2.12; for EQVRDWSHYFKIIEDLRAQIFANT [P1E]: 2.13. Still for that read-out and setting: the same measure for GQVRDWSHYFKIIEDLRAQIFANT [P1G]: 1.94; for SQVRDWSHYFKIIEDLRAQIFANT [P1S]: 2.02. The same measure, in the same setting: the value for WQVRDWSHYFKIIEDLRAQIFANT [P1W] was 2.86; that for YQVRDWSHYFKIIEDLRAQIFANT [P1Y] was 2.22. For the variant TQVRDWSHYFKIIEDLRAQIFANT [P1T], the protein stability index was determined as 2.25. On the same count and under the same terms, the value for NQVRDWSHYFKIIEDLRAQIFANT [P1N] was 2.5; that for KQVRDWSHYFKIIEDLRAQIFANT [P1K] was 2.42. The same measure, in the same setting: the same measure for LQVRDWSHYFKIIEDLRAQIFANT [P1L]: 1.73. The same measure, in the same setting: the value for VQVRDWSHYFKIIEDLRAQIFANT [P1V] was 2.2; that for IQVRDWSHYFKIIEDLRAQIFANT [P1I] was 2.24; that for RQVRDWSHYFKIIEDLRAQIFANT [P1R] was 2.86. For the variant FQVRDWSHYFKIIEDLRAQIFANT [P1F], the protein stability index amounted to 1.7. Still for that read-out and setting: the same measure for AQVRDWSHYFKIIEDLRAQIFANT [P1A]: 1.31; for HQVRDWSHYFKIIEDLRAQIFANT [P1H]: 1.99. Still for that read-out and setting: the value for DQVRDWSHYFKIIEDLRAQIFANT [P1D] was 2.83; that for CQVRDWSHYFKIIEDLRAQIFANT [P1C] was 2.3; that for PQVRDQSHYFKIIEDLRAQIFANT [W6Q] was 2.41.

Take PQVRDESHYFKIIEDLRAQIFANT [W6E]: the protein stability index was determined as 2.97. Consider PQVRDGSHYFKIIEDLRAQIFANT [W6G], for which the protein stability index amounted to 2.14. The same measure, in the same setting: the same measure for PQVRDISHYFKIIEDLRAQIFANT [W6I]: 2.48; for PQVRDHSHYFKIIEDLRAQIFANT [W6H]: 1.85; for PQVRDFSHYFKIIEDLRAQIFANT [W6F]: 2.3. Still for that read-out and setting: the value for PQVRDLSHYFKIIEDLRAQIFANT [W6L] was 2.22; that for PQVRDDSHYFKIIEDLRAQIFANT [W6D] was 2.61. Same read-out and setting: the same measure for PQVRDVSHYFKIIEDLRAQIFANT [W6V]: 1.92; for PQVRDPSHYFKIIEDLRAQIFANT [W6P]: 2.21.

Turning to PQVRDCSHYFKIIEDLRAQIFANT [W6C], the protein stability index was 1.88. On the same count and under the same terms, the value for PQVRDASHYFKIIEDLRAQIFANT [W6A] was 1.69.
